Results from patent publication US20190330313A1 (HANX BIOPHARMACEUTICS, published 2019).

How the values were obtained:
PD-1-his antigen = target: T1, PD-1-his antigen (UniProt Q15116 25-167, limits assumed); assay: ELISA, PD-1-his coated at 0.25 µg/ml
T1 construct: not shown: his tag
Protocol: An ELISA plate was coated with PD-1-his antigen in a concentration of 0.25 μg/ml (100 μl per well) by incubation at 4° C. overnight.
The ELISA plate coated with the PD-1-his antigen was blocked with 1% BSA in the PBS buffer at 37° C. for 2 hours and washed with 1×PBST buffer containing 1% Tween-20 for three times, with gently patting to dryness.

PD-1-hIgGFc antigen [1] = target: T2, PD-1-hIgGFc antigen (human, UniProt Q15116 25-167, limits assumed); assay: competitive ELISA, PD-1-hIgGFc coated, competitor PDL2-his tag 0.5 µg/ml
T2 construct: not shown: human IgG Fc (hIgGFc)
Protocol: A 96-well ELISA plate was coated with PD-1-hIgGFc antigen in a concentration of 1.0 μg/ml (100 μl per well) by incubation at 4° C. overnight.
After the 96-well ELISA plate was washed with the PBST buffer for five times and gently patted to dryness, HRP-conjugated monoclonal mouse anti-his tag as a secondary antibody in 1:750 dilution (50 μl per well) was added for incubation at 37° C. for 1 hour.

PD-1-hIgGFc antigen [2] = target: T2, PD-1-hIgGFc antigen; assay: competitive ELISA, PD-1-hIgGFc coated, competitor PDL1-mIgG2aFc 0.3 µg/ml
Protocol: A 96-well ELISA plate was coated with PD-1-hIgGFc antigen in a concentration of 0.5 μg/ml (50 μl per well) by incubation at 4° C. overnight.

T2 sequence (Q15116 25-167 limits assumed): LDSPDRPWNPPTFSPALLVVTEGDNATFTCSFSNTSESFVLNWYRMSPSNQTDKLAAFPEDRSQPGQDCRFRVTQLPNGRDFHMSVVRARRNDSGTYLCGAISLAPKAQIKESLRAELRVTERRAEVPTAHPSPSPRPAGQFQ
T1 sequence (Q15116 25-167 limits assumed): as above

B1: humanized H8L2 antibody (IgG-like antibody H8L2 against PD-1) (antibody)
heavy: EVQLVQSGGGLVQPGGSLKLSCAASGFTFSSYGMSWVRQAPGKGLDWVATISGGGRDTYYPDSVKGRFTISRDNSKNNLYLQMNSLRAEDTALYYCARQKGEAWFAYWGQGTLVTVSSASTKGPSVFPLAPCSRSTSESTAALGCLVKDYFPEPVTVSWNSGALTSGVHTFPAVLQSSGLYSLSSVVTVPSSSLGTKTYTCNVDHKPSNTKVDKRVESKYGPPCPPCPAPEFLGGPSVFLFPPKPKDTLMITRTPEVTCVVVDVSQEDPEVQFNWYVDGVEVHNAKTKPREEQFNSTYRVVSVLTPLHQDWLNGKEYKCKVSNKGLPSSIEKTISKAKGQPREPQVYTLPPSQEEMTKNQVSLTCLVKGFYPSDIAVEWESNGQPENNYKTTPPVLDSDGSFFLYSRLTVDKSRWQEGNVFSCSVMHEALHAHYTQKSLSLSLGK
light: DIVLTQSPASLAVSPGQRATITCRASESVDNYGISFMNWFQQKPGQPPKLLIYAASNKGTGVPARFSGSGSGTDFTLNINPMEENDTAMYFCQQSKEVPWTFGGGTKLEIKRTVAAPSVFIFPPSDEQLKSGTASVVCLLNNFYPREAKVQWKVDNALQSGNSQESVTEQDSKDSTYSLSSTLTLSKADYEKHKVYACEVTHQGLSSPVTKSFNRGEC
notes: Expressed in 293 cells and purified on protein A; also called 18A10 H8L2
EC50 (PD-1-his antigen): 40 pM | EC50 (PD-1-hIgGFc antigen [1]): 1830 pM | EC50 (PD-1-hIgGFc antigen [2]): 474 pM
